In patent US20240288440A1 (MACFARLANE BURNET INSTITUTE FOR MEDICAL RESEARCH AND PUBLIC …, published 2024):

Target: SARS-COV-2 spike protein, ancestral Hu-1, on retroviral pseudotyped virus (SARS-COV-2, UniProt P0DTC2 14-1273)
Assay: cell-based or functional assay

B1: CB6-dIgA2 (dimeric chimeric IgA2 of monoclonal antibody CB6 with J chain) (antibody)
heavy: ASEVQLVESGGGLVQPGGSLRLSCAASGFTVSSNYMSWVRQAPGKGLEWVSVIYSGGSTFYADSVKGRFTISRDNSMNTLFLQMNSLRAEDTAVYYCARVLPMYGDYLDYWGQGTLVTVSSASTKGPSVFPLAPSSKSTSGASPTSPKVFPLSLDSTPQDGNVVVACLVQGFFPQEPLSVTWSESGQNVTARNFPPSQDASGDLYTTSSQLTLPATQCPDGKSVTCHVKHYTNPSQDVTVPCPVPPPPPCCHPRLSLHRPALEDLLLGSEANLTCTLTGLRDASGATFTWTPSSGKSAVQGPPERDLCGCYSVSSVLPGCAQPWNHGETFTCTAAHPELKTPLTANITKSGNTFRPEVHLLPPPSEELALNELVTLTCLARGFSPKDVLVRWLQGSQELPREKYLTWASRQEPSQGTTTFAVTSILRVAAEDWKKGDTFSCMVGHEALPLAFTQKTIDRLAGKPTHVNVSVVMAEVDGTCY
light: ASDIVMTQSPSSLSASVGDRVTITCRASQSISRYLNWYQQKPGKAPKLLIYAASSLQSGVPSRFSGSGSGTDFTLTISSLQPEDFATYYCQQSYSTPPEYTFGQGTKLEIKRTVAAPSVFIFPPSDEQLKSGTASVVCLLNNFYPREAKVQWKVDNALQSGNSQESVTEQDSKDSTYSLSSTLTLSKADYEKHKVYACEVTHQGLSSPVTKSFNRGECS
J chain: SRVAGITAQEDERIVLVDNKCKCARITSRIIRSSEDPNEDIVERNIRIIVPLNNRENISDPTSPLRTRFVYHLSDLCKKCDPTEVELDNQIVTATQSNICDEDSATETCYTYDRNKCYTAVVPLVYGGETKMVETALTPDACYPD
  IC50 of pseudotyped virus entry, fold against the IgG version: 2.5 fold
